Test results taken from publication PMC4634408.

Biological target: thrombin (human alpha-thrombin as purchased) (Homo sapiens) (UniProt P00734+P00734)
Experiment: electrochemical impedance spectroscopy
Settings: 5'-HS-C6 thiol spacer; EIS with 2.5 mM [Fe(CN)6]3-/4- in phosphate buffer (PB) pH 7.0 with 0.1 M K2SO4; pH 6.6-7.8 and 15-40 C also tested (best pH 7.0, 35 C); standard incubation …

TTTGGTTGGTGTGGTTGG [ThA thrombin aptamer (15-mer with dT3 spacer)]
binding signal: -28 % dRct/Rct0
